Test results from publication PMC5500003, “RNA stores tau reversibly in complex coacervates”.

Target: tau 4R2N (Homo sapiens, UniProt P10636-8 1-441)
Assay: EMSA; Hill coefficient 2.6; EMSA: 100 mM sodium acetate pH 7.0, 0.5 mM EDTA, 0.5 mM MgCl2, 0.01% IGEPAL CA-630, RNase inhibitor, 37 C 10 min, TBE 8% gel; ITC: 20 mM ammonium acetate pH 7
Details: protein: recombinant; chain copies: 2; label: 3' biotin kit RNA

Chain of tau 4R2N (P10636 other isoform, or with tags, fused parts or gaps): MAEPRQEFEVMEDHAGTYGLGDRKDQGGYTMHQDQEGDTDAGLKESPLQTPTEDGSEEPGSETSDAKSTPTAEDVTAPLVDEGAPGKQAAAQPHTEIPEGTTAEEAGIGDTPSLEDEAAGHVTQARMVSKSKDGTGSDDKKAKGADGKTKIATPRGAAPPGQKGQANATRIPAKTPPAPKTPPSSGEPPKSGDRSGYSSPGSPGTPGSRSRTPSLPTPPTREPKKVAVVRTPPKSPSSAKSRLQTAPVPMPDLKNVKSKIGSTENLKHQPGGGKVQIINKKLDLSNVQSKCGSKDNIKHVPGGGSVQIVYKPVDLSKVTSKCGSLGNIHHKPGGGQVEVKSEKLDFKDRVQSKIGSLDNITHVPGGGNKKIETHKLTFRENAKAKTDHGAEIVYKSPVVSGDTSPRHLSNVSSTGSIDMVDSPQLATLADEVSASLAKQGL

Binder CCUGGUUUUUAAGGAGUGUCGCCAGAGUGCCGCGAAUGAAAAA (ssRNA) [RNA43] has a Kd of 832 ± 94 nM.
